# Measured values taken from US20240150462A1 (UNIVERSITY HEALTH NETWORK, published 2024).
# Biological target: T1, Recombinant human Fc-tagged extracellular domain of LILRB2 (human, UniProt Q8N423 22-460)
# T1 construct: extracellular domain; Bought from R&D Systems; also called LILRB2-Fc; not shown: Fc tag
# Test: SPR, Biacore X100; LILRB2-Fc amine-coupled to CM5 chip, antibody injected at 3.7-300 nM
# Procedure: (§1) Dissociation constants (Kd) for mouse anti-human LILRB1 and LIRB2 antibodies were determined using a Biacore X100 surface plasmon resonance instrument (Cytivia). Recombinant human Fc-tagged extracellular domains of LILRB1 or LILRB2 (LILRB1-Fc or LILRB2-Fc; R&D Systems) were immobilized on a Biacore CM5 biosensor chip by amine coupling at a density of 40-50 relative units (RU). Purified mouse monoclonal antibodies were injected over the biosensor in a concentration series of 3.7, 11, 33, 100, and 300 nM in HBS-EP buffer (10 mM HEPS pH 7.4, […], 3 mM EDTA, 0.005% v/v Surfactant P20) at a flow rate of 50 μL/min. Regeneration of the chip was achieved by a 30 s injection of 10 mM glycine-HCl, pH 1.7. Affinity parameters were determined by fitting response data using the accompanying Biacore X100 analysis software.
# T1 sequence (Q8N423 22-460): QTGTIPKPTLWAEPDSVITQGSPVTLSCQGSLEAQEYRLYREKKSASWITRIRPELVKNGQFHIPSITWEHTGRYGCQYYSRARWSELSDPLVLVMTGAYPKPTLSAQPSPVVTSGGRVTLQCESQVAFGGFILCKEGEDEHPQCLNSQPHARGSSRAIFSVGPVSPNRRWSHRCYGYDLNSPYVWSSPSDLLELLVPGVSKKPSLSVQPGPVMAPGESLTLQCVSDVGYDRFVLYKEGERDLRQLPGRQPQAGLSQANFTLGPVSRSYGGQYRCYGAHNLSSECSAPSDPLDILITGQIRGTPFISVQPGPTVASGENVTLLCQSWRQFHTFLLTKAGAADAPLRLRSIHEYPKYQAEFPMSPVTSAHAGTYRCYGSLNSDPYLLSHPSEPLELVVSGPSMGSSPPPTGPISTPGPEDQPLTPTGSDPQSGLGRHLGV
row,-log(Kd),Binder
1,7.79,"1A8 (antibody, V domains shown, Entries are printed with leader peptide and part of the mouse constant region; also called LILRB2 antibody 1A8) VH: EVQLVESGGDLVKPGESLKLSCAASGFSFSSYDMSWVRQTPDKRLEWVTTISSGGDYTYFPDILKGRFTISRDNAKHTLYLQLSSLKSEDTAMYYCARWDSNFPHWYFDVWGTGTTVTVSS VL: DIVLTQSPASLAVSLGQRATISCRASESVDKSGISFLHWYQQKPRQPPKLLIYRASNLESGIPGRFSGSGSRTDFTLSINPVEPDDVATYYCQQSNKDPFTFGGGTKLEIKR"
2,8.05,"1G3 (antibody, V domains shown, Entries are printed with leader peptide and part of the mouse constant region; also called LILRB2 antibody 1G3) VH: EVQLVESGGDLVKPGGSLKLSCAASGFTFSSYDMSWVRQTPDKRLEWVATISSGGSYTFYPDSVKGRFTISRDNAKNTLSLQMSSLKSEDTAIYYCARWDSNYLRWFFDVWGTGTTVTVSS VL: DIVLTQSPASLAVSLGQRATISCRASESVDNNGISFMHWYQQKPGQSPKLLIYRASNLESGIPARFSGSGSRTDFTLTINPVETDDVATYYCQQSNDDPFTFGGGTKLEIKR"
3,7.95,"10F5 (antibody, V domains shown, Entries are printed with leader peptide and part of the mouse constant region; also called LILRB2 antibody 10F5) VH: EVQLVESGGDLVKPGGSLKLSCAASGFTFSSYDMSWVRQTPDKRLEWVATISSGASYTYYPDSVKGRFTISRDNAKNTLYLQMSSLKSEDTAIYYCARWDSKYLRWYFDVWGTGTTVTVSS VL: DIVLTQSPASLAVSLGQRATISCRASESVDNNGISFMHWYQQKPGQSPKLLISRASNLESGIPARFSGSGSRTDFTLTINPVETDDVATYYCQQSNEDPFTFGGGTKLEIKR"
4,8.4,"2F10 (antibody, V domains shown, Entries are printed with leader peptide and part of the mouse constant region; also called LILRB2 antibody 2F10) VH: EVQLQQSGPELVKPGASVKISCKASGYTFTDDYMNWVKQSHGKSLEWIGDINPTNGDTNYNQKFKGKATLTVDKSSSTAYMELRGLTSEDSAVYYCARGSSPFTYWGQGTLVTVSA VL: DIQMTQTTSSLSASLGDRVTISCSASQGISNYLNWYQQKPDGTVKLLIYYTSSLYSGVPSRFSGSGSGTDYSLTISNLEPEDIATYYCQQYSKLPWTFGGGTKLEIKR"
5,7.64,"1C8 (antibody, V domains shown, Entries are printed with leader peptide and part of the mouse constant region; also called LILRB2 antibody 1C8) VH: EVKLVESGGGLVQPGGSLKLSCAASGFTFSDYYMYWVRQTPEKRLEWVAYISNGGGNTYYPDTVKGRFTISRDNAKNTLYLQMSRLKSEDTAMYYCARQLEDWYFDVWGTGTTVTVSS VL: DIVMTQSHKFMSTSVGDRVSITCKASQDVSTAVAWSQQKPGQSPKLLVYWASARHTGVPDRFTGSGSGADYTLTISSVQAEDLALYYCQQHFSTPLTFGAGTKLELKR"
6,8.33,"2G9 (antibody, V domains shown, Entries are printed with leader peptide and part of the mouse constant region; also called LILRB2 antibody 2G9) VH: EVKLVESGGGLVQPGGSLKLSCAASGFTFSDYYMYWVRQTPEKRLEWVAYISNGGGNTYYPDTVKGRFTISRDNAKNTLYLQMSRLKSEDTAMYYCARNRDDWYFDVWGTGTTVTVSS VL: not shown"

# Biological target: T2, Recombinant human Fc-tagged extracellular domain of LILRB1 (human, UniProt Q8NHL6 24-461)
# T2 construct: extracellular domain; Bought from R&D Systems; also called LILRB1-Fc; not shown: Fc tag
# T2 sequence (Q8NHL6 24-461): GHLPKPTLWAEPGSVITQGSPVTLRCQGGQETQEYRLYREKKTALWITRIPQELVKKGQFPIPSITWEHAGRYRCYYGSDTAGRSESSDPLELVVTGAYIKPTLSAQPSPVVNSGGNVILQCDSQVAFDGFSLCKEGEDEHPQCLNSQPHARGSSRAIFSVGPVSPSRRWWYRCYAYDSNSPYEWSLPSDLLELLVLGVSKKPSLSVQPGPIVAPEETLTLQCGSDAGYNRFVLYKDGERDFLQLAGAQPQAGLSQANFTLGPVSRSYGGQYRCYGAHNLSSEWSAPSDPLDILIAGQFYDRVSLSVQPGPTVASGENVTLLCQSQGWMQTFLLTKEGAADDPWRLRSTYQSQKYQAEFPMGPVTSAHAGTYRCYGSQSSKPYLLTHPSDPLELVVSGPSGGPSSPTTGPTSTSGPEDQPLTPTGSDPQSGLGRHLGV
# Test: SPR, Biacore X100; LILRB1-Fc amine-coupled to CM5 chip, antibody injected at 3.7-300 nM
# Procedure: as §1
row,-log(Kd),Binder
1,12.6,"4H5 (antibody, V domains shown, Entries are printed with leader peptide and part of the mouse constant region; also called LILRB1 antibody 4H5) VH: QIQLQQSGPELVKPGASVKISCKASGYTFTDYYINWVKQRPGQGLEWIGWIYPGGDNTKYNEKFKDKATLTVDTSSSTTYMQLSSLTSEDSAVYFCARFEDKYSSNYWFAYWGQGTLVTVSA VL: DILLTQSPAILSVSPGERVSFSCRASQYIGTSIHWYQQRTNGSPRLLIKYASESISGIPSRFSGSGSGTDFTLSINSVESEDVADYYCQQSNRWPFTFGSGTKLEIKR"
2,12.4,"6A11 (antibody, V domains shown, Entries are printed with leader peptide and part of the mouse constant region; also called LILRB1 antibody 6A11) VH: QIQLQQSGPELVKPGASVKISCKASGYTFTDYYINWVKQRPGQGLEWIGWIYPGSGNTKYNEKFKGKATLTVDTSSSTAYMQLSSLTSEDSAVYFCARFEDKHSSNYWFAYWGQGTLVTVSA VL: DILLTQSPAILSVSPGERVSFSCRASQYIGTSIHWYQQRTNGSPRLLIKYASESISGIPSRFSGSGSGTDFTLSINSVESEDIADYYCQQSNSWPFTFGSGTKLEIKR"
3,7.98,"6A6 (antibody, V domains shown, Entries are printed with leader peptide and part of the mouse constant region; also called LILRB1 antibody 6A6) VH: QVQLQQSGPELVKPGASVKISCKASGYSFTSSYIHWVKQRPGQGLEWIGWIYPGSGNTKYNERFKGKATLTADTSSSTAYMHLSSLTSEDSAVYYCARNYGTSYGWYFDVWGTGTTVTVSS VL: DIVMTQSQKFMSTTVGDRVSITCKASQNVGTAVAWYQQKPGQSPKLLIYSLSNRYTGVPDRFTGSGSGTDFTLTISNMQSEDLTDYFCQQYSSYPLTFGAGTKLELKR"
4,6.58,"6B7 (antibody, V domains shown, Entries are printed with leader peptide and part of the mouse constant region; also called LILRB1 antibody 6B7) VH: QIQLVQSGPELKKPGETVKISCKASGYTFTNYGLSWVKQAPGKGLKWMGWINTYSGVTTYADDFKGRFAFSLETSASTAYLQINNLKSEDTATYFCARRSYDYSHYYAMDYWGQGTSVTVSS VL: ETTVTQSPASLSVATGEKVTIRCITSTDIDDDINWYQQKPGEPPKFLISEGNTLRPGVPSRFSSSGYGTDFVFTIENTLSEDVADYYCLQSNNMPYTFGGGTKLEIKR"
5,< 3,"5E11 (antibody, V domains shown, Entries are printed with leader peptide and part of the mouse constant region; also called LILRB1 antibody 5E11) VH: QVQLKESGPGLVAPSQSLSITCTVSGFSLSSYGVNWVRQPPGKGLEWLGVIWGDGSTNYHSALISRLSISKDNSKSQVFLKLNSLQTDDTATYYCAKPNWDYYAMEYWGQGTSVTVSS VL: DIQMTQTTSSLSASLGDRVTITCRASQDISNFLNWYQQKPDGPVKLLIYYTSRLHSGVPSRFSGSGSGTDYSLTISNLEQEDIATYFCQQGNTLPWTFGGGTKLEIKR"
6,8.26,"5H12 (antibody, V domains shown, Entries are printed with leader peptide and part of the mouse constant region; also called LILRB1 antibody 5H12) VH: QVQLKESGPGLVAPSQSLSITCTVSGFSLSSYGVNWVRQPPGKGLEWLGVIWGDGSTNYHSALISRLSISKDNSKSQVFLKLNSLQTDDTATYYCAKPNWDYYAMEYWGQGTSVTVSS VL: GIVMTQSQKFMSSTVGDRVSITCKASQNVGAAVIWYQQKPGQSPKLLIYSASNRYTGVLDRFTGSGSGTDFTLTISNMQSEDLADYFCQQYSSYPWTFGGGTKLEIKR"
7,8.2,"5E6 (antibody, V domains shown, Entries are printed with leader peptide and part of the mouse constant region; also called LILRB1 antibody 5E6) VH: QVQLQQSAAELVKPGASVKISCKVSGQSFTDHTIHWMKQRPEQGLEWIGYIFPRDGFTEYNERFKGKATLTADKSSSTAYMHLNSLTSEDSAVYFCAGNWDALDYWGPGTSVTVSS VL: DIVLTQSPATLSVTPGDSVSLSCRASQSISKYLHWYQQKSHESPRLLIKYVSQSISGIPSRFSGSGSGTDFTLSINSVETEDFGIYFCQQSNSWPLTFGAGTKLELKR"
8,8.76,"5B3 (antibody, V domains shown, Entries are printed with leader peptide and part of the mouse constant region; also called LILRB1 antibody 5B3) VH: QVQLKESGPGLVAPSQSLSITCTVSGFSLTSYGIDWVRQPPGKGLEWLGVIWGGGNTNYNSALMSRLTISKDNSKSQVFLKMNSLQTDDTAMYYCAKANWDSYAMDYWGQGTSVTVSS VL: DIQMNQSPSSLSASLGDTITITCHASQNINFWLNWYQQKPGNIPKLLIYKASNLHTGVPSRFSGSGSGTGFTLTISSLQPEDIATYYCQQGQSYPLTFGGGTKVEIKR"

# Second part, the binder before the results:
row,Binder,-log(Kd)
1,"4A11 (antibody, V domains shown, Entries are printed with leader peptide and part of the mouse constant region; also called LILRB1 antibody 4A11) VH: QVQLKQSGAELVRPGTSVKLSCKASGYTFTDYYINWVKQRPGQGLEWIARIYPGSGNTFYNEKFQDKATLTAEKSSSTAYMQLSSLTSEDSAVYFCANTPSYGSSHWYFDVWGTGTTVTVSS VL: DIVMTQSHKFMSTSVGDRVSITCKASQDVNTAVAWYQQKPGQSPKLLIYWASTRHTGVPDRFTGSGSGTDFTLTISNVQSEDLADYFCQQYSTYPRTFGGGTKLEIKR",7.76
2,"3E12 (antibody, V domains shown, Entries are printed with leader peptide and part of the mouse constant region; also called LILRB1 antibody 3E12) VH: QVQLQQSGAELMKPGASVKLSCKATGYTFTGYWIEWVKQRPGHGLEWIGEILLGSGNTNYNENFKGKATLTADTSSNTAYMQLSSLTTEDSAIYYCASTHDGYWGQGTTLTVSS VL: QFILTQSPAIMSASPGEKVTITCSASSSVSYMHWFQQKPGTSPKLWIYSTSNLASGVPARFSGSGSGTSYSLTISRMEAEDAATYYCQRRSSYPFTFGSGTKLEIKR",11.6
3,"1B10 (antibody, V domains shown, The entries called 'variable region' are printed with the leader peptide and part of the mouse constant region; also called LILRB1 antibody 1B10) VH: QVQLQQPGAELVKPGASVKLSCKASGYTFTNYWVQWVKQRPGQGLEWIGMIHPNSGSTNSNEKFKNKATLTVDRSSSTAYMQLSRLTSEDSAVYYCARGDDGYLYYFDYWGQGTTLTVSS VL: QIVLTQSPALMSASPGEKVTMTCSASSSVSHMYWYQQKPRSSPKPWIYLTSNLASGVPARFSGSGSGTSYSLTISNMEAEDAATYYCQQWSSYAFTFGSGTKLEIKR",8.13
4,"4D5 (antibody, V domains shown, Entries are printed with leader peptide and part of the mouse constant region; also called LILRB1 antibody 4D5) VH: QVQLQQPGAELVRPGSSVKLSCKASGYTFTSYWMDWVKQRPGQGLEWIGNIYPSDSATHYNQKFKDKATLTVDKSSSTAYMHLSSLTSEDSAVYYCARGLLQYFDVWGTGTSVTVSS VL: DIQMTQSPASLSVSVGETVTITCRASENIYSNLAWYQQKQGKSPQLLVYGATNLADGVPSRFSGSGSGTQYSLKINSLQSEDFGSYYCQHFWGIPWTFGGGTKLEIKR",7.89
5,"4A10 (antibody, V domains shown, Entries are printed with leader peptide and part of the mouse constant region; also called LILRB1 antibody 4A10) VH: QVQLQQPGAELVKPGASVKLSCKASGYTFTNYWMYWVKQRPGQGLEWIGMIHPNSDSTNYNEKFKNKATLTVDRSSSTAYMQLSSLTSEDSAVYCCARGEDNYDYVMDYWGQGTSVTVSS VL: DIVMTQAAPSVPVTPGESVSISCRSSKSLLHSYGNTHLYWFLQRPGQSPQLLIYRMSNLASGVPDRFSGSGSGTAFTLRISRVEAEDVGVYYCMQHLEYPLTFGAGTKLELKR",7.89
6,"4C2 (antibody, V domains shown, Entries are printed with leader peptide and part of the mouse constant region; also called LILRB1 antibody 4C2) VH: QVQLQQPGAALVKPGASVKLSCKASGYTFTSYWMHWVKQRPGQGLEWIGMIHPNSGSTNYNEKFRSEATLTVDKSSSTVYMQLSSLTSEDSAVYYCARSGDAYYDGLDYWGQGTSVTVSS VL: DIQMNQSPSSLSASLGDTITITCHARQNINVWLSWYQQKPGNIPKLLIYKASNLHTGVSSRFSGSGSGTGFTLTISSLQPEDIATYYCQQGQSYPWTFGGGTKLEIKR",12.7
